B1: IgG1-6003-408 (antibody, V domains shown)
VH: EVQLVESGGGLVKPGGSLRLSCAASGFTFSSYSMNWVRQAPGKGLEWVSSISSSSSYIYYADSVKGRFTISRDNAKNSLYLQMNSLRAEDTAVYYCARRRIAAAGTGYGAFDIWGQGTMVTVSS
VL: ARQLTQSPSSLSASVGDRVTITCRASQGITSALAWYQQKPGKVPKLLIYDASSLESGVPSRFSGSGSGTDFTLTISSLQPEDFATYYCQQFNGYPMFSFGQGTKLEII
notes: also called Antibody 6003-408
B2: Antibody 6003-381 (antibody, human IgG1, V domains shown)
VH: QVQLVESGGGVVQPGRSLRLSCAASGFTFSNYVMHWVRQAPGKGLEWVAAISYNGNNKYYADSVKGRFTISRDNSKNTLYLQMNSLRAEDTAVSYCAKGLNDAFDIWGQGTMVTVSS
VL: not shown
B3: Antibody 6003-1277 (antibody, V domains shown)
VH: QVQLVQSGAEVKKPGASVKVSCKTSGYTFTHYGISWVRQAPGQGLEWMGWINTYNGNTKYAQKLQGRVTMTTDTSTSTAYMELRSLRSDDTAVYYCASLGRNFDYWGQGTLVTVSS
VL: not shown
B4: Antibody 6003-030 (antibody, human IgG1, V domains shown)
VH: EVQVLESGGGLVQPGGSLRLSCAASGFTFSSYAMSWVRQAPGKGLEWVSTISGRGGNTYYADSVKGRFTISRDNSKNTLYLQMDSLRAEDTAVYYCAIIPSLYWYFDLWGRGTLVTVSS
VL: EIVLTQSPATLSLSPGERATLSCRASQSVSSYLAWYQQKPGQAPRLLIYDASNRATGIPARFSGSGSGTDFTLTISSLEPEDFAVYYCQQRSNWPLTFGGGTKVEIK
notes: Human antibody (HuMab); also called antibody 30; mAb30
B5: Antibody 6003-028 (antibody, human IgG1, V domains shown)
VH: EVQLLESGGGLVQPGGSLRLSCAASGFTFSSYAMSWVRQAPGKGLEWVSTISGRGGSTYYADSVKGRFTISRDNSKNTLYLQMNSLRAEDTAVYYCANLYSNYWYFDLWGRGTLVTVSS
VL: EIVLTQSPATLSLSPGERATLSCRASQSVSSFLAWYQQKPGQAPRLLIYDASNRATGIPARFSGSGSGTDFTLTISSLEPEDFAVYYCQQRSNWPLTFGGGTKVEIK
B6: Antibody 6003-083 (antibody, human IgG1, V domains shown)
VH: EVQLLESGGGLVQPGGSLRLSCAASGFTFSSYAMSWVRQAPGKGLEWVSTISGRGGSTYYADSVKGRFTISRDNSKNTLYLQMNSLRAEDTAVYYCAIVATMYWYFDLWGRGTLVTVSS
VL: EIVLTQSPATLSLSPGERATLSCRASQSVSSYLAWYQQKPGQAPRLLIYDASNRATGIPARFSGSGSGTDFTLTISSLEPEDFAVYYCQQRSNWPITFGQGTRLEIK
B7: Antibody 6003-056 (antibody, human IgG1, V domains shown)
VH: EVQVLESGGGLVQPGGSLRLSCVASGFTFSSYAMHWVRQAPGKGLEWVSAISGRGGSTYYADSVKGRFTISRDNSKNTLYLQMNSLRAEDTAVYYCAIIPSLYWYFDLWGRGTLVTVSS
VL: EIVLTQSPATLSLSPGERATLSCRASQSVSSFLAWYQQKPGQAPRLLIYDASNRATGIPARFSGSGSGTDFTLTISSLEPEDFAVYYCQQRSNWPLTFGGGTKVEIK
B8: Antibody 6003-1286 (antibody, human IgG1, V domains shown)
VH: EVQLLESGGGLVQPGGSLRLSCAASGFTFSSYAMSWVRQAPGKGLEWVSTISGRGGNTYYADSVKGRFTISRDNSKNTLYLQMNSLRAEDAAVYYCANIYSHYWYFDLWGRGTLVTVSS
VL: EIVLTQSPATLSLSPGERATLSCRASQSVNSYLAWYQQKPGQAPRLLIYDASNRATGIPARFSGSGSGTDFTLTISSLEPEDFAVYYCQQRSNWPLTFGGGTKVEIK

Columns and labels:
Assay in all cases: BLI (Octet384RED)
hBack = target: T1, hBack
T1 chimeric human/tetraodon Sortilin extracellular region, BAP tag: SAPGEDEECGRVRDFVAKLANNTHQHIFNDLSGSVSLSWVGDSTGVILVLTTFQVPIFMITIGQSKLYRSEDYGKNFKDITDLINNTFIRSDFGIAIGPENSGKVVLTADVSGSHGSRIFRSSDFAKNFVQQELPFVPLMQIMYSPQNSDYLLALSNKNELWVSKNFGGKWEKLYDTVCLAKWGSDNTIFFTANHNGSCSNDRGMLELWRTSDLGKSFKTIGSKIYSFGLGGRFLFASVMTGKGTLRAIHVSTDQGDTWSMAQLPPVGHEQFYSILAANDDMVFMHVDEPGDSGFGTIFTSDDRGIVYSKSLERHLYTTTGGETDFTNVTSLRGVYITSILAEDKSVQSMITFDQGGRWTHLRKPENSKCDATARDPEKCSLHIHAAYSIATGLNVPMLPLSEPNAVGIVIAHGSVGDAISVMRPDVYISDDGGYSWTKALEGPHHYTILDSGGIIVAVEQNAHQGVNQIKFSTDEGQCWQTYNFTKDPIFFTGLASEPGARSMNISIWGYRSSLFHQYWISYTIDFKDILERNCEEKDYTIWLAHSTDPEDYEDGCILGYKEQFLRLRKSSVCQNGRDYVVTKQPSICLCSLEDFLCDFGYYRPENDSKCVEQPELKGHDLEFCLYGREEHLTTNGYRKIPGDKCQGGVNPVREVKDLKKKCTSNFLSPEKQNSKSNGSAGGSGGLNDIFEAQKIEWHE

[1] = target: T2, Sortilin SORTECDBAP_hB01-05 (human/tetraodon chimera)
T2 construct: Shuffle construct: chimeric human/tetraodon Sortilin ECD with BAP tag
T2 chain: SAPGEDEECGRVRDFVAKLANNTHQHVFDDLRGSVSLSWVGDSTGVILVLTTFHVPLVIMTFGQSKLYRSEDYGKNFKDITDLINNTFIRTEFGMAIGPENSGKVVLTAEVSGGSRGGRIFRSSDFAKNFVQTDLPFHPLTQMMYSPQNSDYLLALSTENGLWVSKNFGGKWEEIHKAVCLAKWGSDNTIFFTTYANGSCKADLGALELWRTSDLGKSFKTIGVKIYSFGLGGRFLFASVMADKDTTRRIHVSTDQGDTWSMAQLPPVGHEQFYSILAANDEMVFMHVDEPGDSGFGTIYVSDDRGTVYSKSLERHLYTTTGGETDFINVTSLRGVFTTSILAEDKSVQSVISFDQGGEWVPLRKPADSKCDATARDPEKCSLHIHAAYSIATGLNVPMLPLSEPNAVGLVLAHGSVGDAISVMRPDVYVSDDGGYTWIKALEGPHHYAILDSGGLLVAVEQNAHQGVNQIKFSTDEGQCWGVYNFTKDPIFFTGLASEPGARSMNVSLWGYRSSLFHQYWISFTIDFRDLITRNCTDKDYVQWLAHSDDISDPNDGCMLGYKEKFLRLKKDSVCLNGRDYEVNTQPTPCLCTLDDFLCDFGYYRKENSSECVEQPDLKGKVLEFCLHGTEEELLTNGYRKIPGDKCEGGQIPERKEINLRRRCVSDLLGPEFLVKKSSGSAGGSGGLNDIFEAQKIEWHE

[2] = target: T3, Sortilin SORTECDBAP_hB12390 (human/tetraodon chimera)
T3 construct: Shuffle construct: chimeric human/tetraodon Sortilin ECD with BAP tag
T3 chain: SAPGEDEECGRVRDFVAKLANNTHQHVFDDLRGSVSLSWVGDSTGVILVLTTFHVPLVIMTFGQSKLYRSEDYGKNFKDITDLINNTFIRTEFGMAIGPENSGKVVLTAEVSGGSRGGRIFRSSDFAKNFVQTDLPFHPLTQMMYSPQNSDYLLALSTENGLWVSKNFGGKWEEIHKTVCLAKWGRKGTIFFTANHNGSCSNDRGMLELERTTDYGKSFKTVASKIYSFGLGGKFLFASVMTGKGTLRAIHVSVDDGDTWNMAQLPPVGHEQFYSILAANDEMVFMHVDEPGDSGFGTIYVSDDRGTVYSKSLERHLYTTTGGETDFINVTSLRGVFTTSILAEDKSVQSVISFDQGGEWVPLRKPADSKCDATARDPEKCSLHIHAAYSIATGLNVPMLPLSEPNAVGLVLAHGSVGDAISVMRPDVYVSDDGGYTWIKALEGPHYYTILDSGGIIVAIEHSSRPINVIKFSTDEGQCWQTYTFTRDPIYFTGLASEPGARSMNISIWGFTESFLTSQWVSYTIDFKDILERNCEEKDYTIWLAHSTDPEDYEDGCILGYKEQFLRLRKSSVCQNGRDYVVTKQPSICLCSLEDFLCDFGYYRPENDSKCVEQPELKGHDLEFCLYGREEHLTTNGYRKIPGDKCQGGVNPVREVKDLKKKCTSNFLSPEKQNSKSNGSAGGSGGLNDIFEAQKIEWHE

hRim = target: T4, hRim
T4 chimeric human/tetraodon Sortilin extracellular region, BAP tag: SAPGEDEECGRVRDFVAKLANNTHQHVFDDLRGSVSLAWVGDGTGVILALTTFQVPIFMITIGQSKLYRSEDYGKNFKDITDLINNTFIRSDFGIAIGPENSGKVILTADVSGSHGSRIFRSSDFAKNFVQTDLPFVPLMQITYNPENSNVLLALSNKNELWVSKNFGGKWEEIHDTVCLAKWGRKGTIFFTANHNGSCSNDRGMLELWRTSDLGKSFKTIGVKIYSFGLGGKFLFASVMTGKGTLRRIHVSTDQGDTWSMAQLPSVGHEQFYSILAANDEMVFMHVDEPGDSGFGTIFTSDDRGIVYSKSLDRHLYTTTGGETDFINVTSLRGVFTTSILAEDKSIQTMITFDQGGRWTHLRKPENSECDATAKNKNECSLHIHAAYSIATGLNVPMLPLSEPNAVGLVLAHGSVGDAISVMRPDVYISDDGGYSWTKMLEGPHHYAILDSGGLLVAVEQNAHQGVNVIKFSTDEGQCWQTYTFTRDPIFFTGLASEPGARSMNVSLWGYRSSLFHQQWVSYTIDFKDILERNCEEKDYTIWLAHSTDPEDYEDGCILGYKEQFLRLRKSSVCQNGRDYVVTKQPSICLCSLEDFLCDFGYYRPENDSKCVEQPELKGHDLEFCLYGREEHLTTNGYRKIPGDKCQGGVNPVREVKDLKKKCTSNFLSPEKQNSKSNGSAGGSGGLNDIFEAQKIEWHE

Binder | EC50 (hBack) | binding result [1] | EC50 [2] | EC50 (hRim)
B1 | 2.37 ng/mL | no binding | 2.21 ng/mL | 2.78 ng/mL
B2 | 1.6 ng/mL | no binding | 1.93 ng/mL | 2.28 ng/mL
B3 | 4.07 ng/mL | no binding | 3.63 ng/mL | 4.34 ng/mL
B4 | 0.85 ng/mL | no binding | 0.82 ng/mL | 0.86 ng/mL
B5 | 1.87 ng/mL | no binding | 1.86 ng/mL | 2.04 ng/mL
B6 | 1.34 ng/mL | no binding | 0.86 ng/mL | 0.99 ng/mL
B7 | 1.14 ng/mL | no binding | 1.42 ng/mL | 1.24 ng/mL
B8 | 1.02 ng/mL | no binding | 0.86 ng/mL | 1.05 ng/mL
